Test results reported in patent US20210030885A1, “HUMANIZED ANTI-LIV1 ANTIBODIES FOR THE TREATMENT OF CANCER” (priority 2019, published 2021).

Tested on: patients with metastatic breast cancer
Assay: Phase 1 dose-escalation study, safety and tolerability of weekly LV (Day 1, 8, 15 of 3-week cycle)
Type: in vivo, human
Description: This is a phase 1, open label, dose escalation study to evaluate the safety and tolerability of ladiratuzumab vedotin (LV) in patients with metastatic breast cancer.
Eligible patients are females at least 18 years of age who have incurable, unresectable, locally advanced or metastatic breast cancer (LA/mBC). Patients must have pathologically and radiologically confirmed hormone receptor-positive/human epidermal growth factor 2 negative (HR+/HER2−) or metastatic triple-negative breast cancer (mTNBC) with at least 1 measurable lesion per RECIST v1.1. Subjects with HR+/HER2− disease must have received no more than 1 prior line of cytotoxic chemotherapy in the locally advanced (LA)/mBC setting, either as single agent or combination therapy. Subjects with TNBC must have received 1 prior line of cytotoxic chemotherapy in the LA/mBC setting. Progression within 6 months of completion of neoadjuvant therapy is considered an LA/mBC regimen. Enrollment is open to all patients, irrespective of their LIV-1 expression level. Available and adequate archival baseline tumor sample is required. A fresh biopsy sample may be submitted in place of an archival sample if medically feasible.
Up to […] will be enrolled (42 HR+/HER2− and 42 mTNBC) into dose escalation and dose-expansion cohorts. Patients will receive LV on Day 1, Day 8, and Day 15 in every 3-week cycle. The study will have dose escalation and expansions cohorts. Patients with HR+/HER2− and TN disease will be enrolled into separate dose-expansion cohorts for each dose level.
Dose escalation will be conducted using the modified toxicity probability interval (mTPI) method according to Ji Y. et al. Clin Trials 7(6):653-63 (2010). Only 1 dose-escalation cohort will be open at a time. Dose-expansion cohorts may be opened at any dose level that has cleared dose-limiting toxicity (DLT) evaluation. Initially, up to approximately 10 patients will be enrolled at each dose level. DLT evaluation will only include data from the dose-escalation cohorts, but the totality of data from all patients at each dose level will be used to determine the recommended weekly LV dose.
LV will be administered at a dose of 0.75 mg/kg to 1.75 mg/kg by intravenous infusion over the course of 30 minutes on Day 1, Day 8, and Day 15 in every 3-week cycle.
The DLT evaluation period is the first treatment cycle (3 weeks). A DLT will be defined as any AE≥Grade 3, according to the NCI CTCAE v4.03, that is possibly, probably, or definitely related to treatment with LV, unless evidence exists that the AE has an etiology other than the investigational agent (e.g., disease progression, pre-existing medical condition, underlying disease, intercurrent illness, or concomitant medication), and/or the event has no plausible temporal relationship to administration of the investigational agent.
Patients were enrolled in the study described in Example 19. Patients had either first or second line endocrine refractory HR+/HER2− metastatic breast cancer or second line metastatic triple negative breast cancer (TNBC). LV was administered at a dose of 1.0 mg/kg, 1.25 mg/kg, or 1.5 mg/kg by intravenous infusion over the course of 30 minutes on Day 1, Day 8, and Day 15 in every 3-week cycle as described in Example 19.

Substance: ladiratuzumab vedotin [LV]
- Grade 5 ischemic colitis, subjects (1 mg/kg LV, unrelated to treatment): *Grade 5 ischemic colitis was observed in 1 subject treated with 1 mg/kg LV. This was unrelated to treatment.
- Grade 3 or higher TEAE: Any Adverse Event (1.0 mg/kg Q1W, n = 20): 12 (60%) n (%)
- Grade 3 or higher TEAE: Diarrhoea (1.0 mg/kg Q1W, n = 20): 1 (5%) n (%)
- Grade 3 or higher TEAE: Fatigue (1.0 mg/kg Q1W, n = 20): 4 (20%) n (%)
- Grade 3 or higher TEAE: Hyperglycemia (1.0 mg/kg Q1W, n = 20): 3 (15%) n (%)
- Grade 3 or higher TEAE: Hypophosphataemia (1.0 mg/kg Q1W, n = 20): 1 (5%) n (%)
- Grade 3 or higher TEAE: Myalgia (1.0 mg/kg Q1W, n = 20): 0 n (%)
- Grade 3 or higher TEAE: Nausea (1.0 mg/kg Q1W, n = 20): 1 (5%) n (%)
- Grade 3 or higher TEAE: Neutropenia (1.0 mg/kg Q1W, n = 20): 2 (10%) n (%)
- Grade 3 or higher TEAE: Neutrophil count decreased (1.0 mg/kg Q1W, n = 20): 1 (5%) n (%)
- Grade 3 or higher TEAE: Peripheral Sensory Neuropathy (1.0 mg/kg Q1W, n = 20): 3 (15%) n (%)
- SAE: Anaemia (1.0 mg/kg Q1W, n = 20): 1 (5%) n (%)
- SAE: Any Adverse Event (1.0 mg/kg Q1W, n = 20): 5 (25%) n (%)
- SAE: Colitis (1.0 mg/kg Q1W, n = 20): 1 (5%) n (%)
- SAE: Dehydration (1.0 mg/kg Q1W, n = 20): 1 (5%) n (%)
- SAE: Diabetic ketoacidosis (1.0 mg/kg Q1W, n = 20): 1 (5%) n (%)
- SAE: Dyspnoea (1.0 mg/kg Q1W, n = 20): 2 (10%) n (%)
- SAE: Embolism (1.0 mg/kg Q1W, n = 20): 1 (5%) n (%)
- SAE: Fatigue (1.0 mg/kg Q1W, n = 20): 1 (5%) n (%)
- SAE: Febrile neutropenia (1.0 mg/kg Q1W, n = 20): 1 (5%) n (%)
- SAE: Hyperglycaemia (1.0 mg/kg Q1W, n = 20): 1 (5%) n (%)
- SAE: Pneumonia (1.0 mg/kg Q1W, n = 20): 0 n (%)
- Grade 3 or higher TEAE: Any Adverse Event (1.25 mg/kg Q1W, n = 18): 14 (78%) n (%)
- Grade 3 or higher TEAE: Diarrhoea (1.25 mg/kg Q1W, n = 18): 1 (6%) n (%)
- Grade 3 or higher TEAE: Fatigue (1.25 mg/kg Q1W, n = 18): 2 (11%) n (%)
- Grade 3 or higher TEAE: Hyperglycemia (1.25 mg/kg Q1W, n = 18): 1 (6%) n (%)
- Grade 3 or higher TEAE: Hypophosphataemia (1.25 mg/kg Q1W, n = 18): 2 (11%) n (%)
- Grade 3 or higher TEAE: Myalgia (1.25 mg/kg Q1W, n = 18): 1 (6%) n (%)
- Grade 3 or higher TEAE: Nausea (1.25 mg/kg Q1W, n = 18): 1 (6%) n (%)
- Grade 3 or higher TEAE: Neutropenia (1.25 mg/kg Q1W, n = 18): 4 (22%) n (%)
- Grade 3 or higher TEAE: Neutrophil count decreased (1.25 mg/kg Q1W, n = 18): 1 (6%) n (%)
- Grade 3 or higher TEAE: Peripheral Sensory Neuropathy (1.25 mg/kg Q1W, n = 18): 6 (33%) n (%)
- SAE: Anaemia (1.25 mg/kg Q1W, n = 18): 0 n (%)
- SAE: Any Adverse Event (1.25 mg/kg Q1W, n = 18): 5 (28%) n (%)
- SAE: Colitis (1.25 mg/kg Q1W, n = 18): 0 n (%)
- SAE: Dehydration (1.25 mg/kg Q1W, n = 18): 0 n (%)
- SAE: Diabetic ketoacidosis (1.25 mg/kg Q1W, n = 18): 0 n (%)
- SAE: Dyspnoea (1.25 mg/kg Q1W, n = 18): 1 (6%) n (%)
- SAE: Embolism (1.25 mg/kg Q1W, n = 18): 0 n (%)
- SAE: Fatigue (1.25 mg/kg Q1W, n = 18): 0 n (%)
- SAE: Febrile neutropenia (1.25 mg/kg Q1W, n = 18): 0 n (%)
- SAE: Hyperglycaemia (1.25 mg/kg Q1W, n = 18): 1 (6%) n (%)
- SAE: Pneumonia (1.25 mg/kg Q1W, n = 18): 2 (11%) n (%)
- Grade 3 or higher TEAE: Any Adverse Event (1.5 mg/kg Q1W, n = 2): 2 (100%) n (%)
- Grade 3 or higher TEAE: Myalgia (1.5 mg/kg Q1W, n = 2): 1 (50%) n (%)
- Grade 3 or higher TEAE: Neutropenia (1.5 mg/kg Q1W, n = 2): 1 (50%) n (%)
- SAE: Anaemia (1.5 mg/kg Q1W, n = 2): 0 n (%)
- SAE: Any Adverse Event (1.5 mg/kg Q1W, n = 2): 1 (50%) n (%)
- SAE: Colitis (1.5 mg/kg Q1W, n = 2): 0 n (%)
- SAE: Dehydration (1.5 mg/kg Q1W, n = 2): 0 n (%)
- SAE: Diabetic ketoacidosis (1.5 mg/kg Q1W, n = 2): 0 n (%)
- SAE: Dyspnoea (1.5 mg/kg Q1W, n = 2): 0 n (%)
- SAE: Embolism (1.5 mg/kg Q1W, n = 2): 0 n (%)
- SAE: Fatigue (1.5 mg/kg Q1W, n = 2): 0 n (%)
- SAE: Febrile neutropenia (1.5 mg/kg Q1W, n = 2): 0 n (%)
- SAE: Hyperglycaemia (1.5 mg/kg Q1W, n = 2): 0 n (%)
- SAE: Pneumonia (1.5 mg/kg Q1W, n = 2): 0 n (%)
- incidence of a variety of adverse events, Q1W vs Q3W (3.0-4.5 mg/kg per 3 weeks on Q1W vs. 2.5 mg/kg on Q3W): lower incidence
- dose limiting toxicities (Dose level 0 (1 mg/kg Q1W), +1 (1.25 mg/kg Q1W), +2 (1.5 mg/kg Q1W)): no dose limiting toxicities observed
- Adverse event incidence: Abdominal Pain (Q1W, N = 40): 7 (18%)
- Adverse event incidence: Alopecia (Q1W, N = 40): 10 (25%)
- Adverse event incidence: Constipation (Q1W, N = 40): 10 (25%)
- Adverse event incidence: Decreased Appetite (Q1W, N = 40): 11 (28%)
- Adverse event incidence: Diarrhea (Q1W, N = 40): 11 (28%)
- Adverse event incidence: Fatigue (Q1W, N = 40): 18 (45%)
- Adverse event incidence: Hypokalemia (Q1W, N = 40): 4 (10%)
- Adverse event incidence: Nausea (Q1W, N = 40): 14 (35%)
- Adverse event incidence: Neutropenia (Q1W, N = 40): 10 (25%)
- Adverse event incidence: Peripheral Sensory Neuropathy (Q1W, N = 40): 9 (23%)
- Adverse event incidence: Vomiting (Q1W, N = 40): 8 (20%)
- Grade 3 or higher TEAE: Any Adverse Event (Total, all Q1W doses, n = 40): 28 (70%) n (%)
- Grade 3 or higher TEAE: Diarrhoea (Total, all Q1W doses, n = 40): 2 (5%) n (%)
- Grade 3 or higher TEAE: Fatigue (Total, all Q1W doses, n = 40): 6 (15%) n (%)
- Grade 3 or higher TEAE: Hyperglycemia (Total, all Q1W doses, n = 40): 4 (10%) n (%)
- Grade 3 or higher TEAE: Hypophosphataemia (Total, all Q1W doses, n = 40): 3 (8%) n (%)
- Grade 3 or higher TEAE: Myalgia (Total, all Q1W doses, n = 40): 2 (5%) n (%)
- Grade 3 or higher TEAE: Nausea (Total, all Q1W doses, n = 40): 2 (5%) n (%)
- Grade 3 or higher TEAE: Neutropenia (Total, all Q1W doses, n = 40): 7 (18%) n (%)
- Grade 3 or higher TEAE: Neutrophil count decreased (Total, all Q1W doses, n = 40): 2 (5%) n (%)
- Grade 3 or higher TEAE: Peripheral Sensory Neuropathy (Total, all Q1W doses, n = 40): 9 (23%) n (%)
- SAE: Anaemia (Total, all Q1W doses, n = 40): 1 (3%) n (%)
- SAE: Any Adverse Event (Total, all Q1W doses, n = 40): 11 (28%) n (%)
- SAE: Colitis (Total, all Q1W doses, n = 40): 1 (3%) n (%)
- SAE: Dehydration (Total, all Q1W doses, n = 40): 1 (3%) n (%)
- SAE: Diabetic ketoacidosis (Total, all Q1W doses, n = 40): 1 (3%) n (%)
- SAE: Dyspnoea (Total, all Q1W doses, n = 40): 3 (8%) n (%)
- SAE: Embolism (Total, all Q1W doses, n = 40): 1 (3%) n (%)
- SAE: Fatigue (Total, all Q1W doses, n = 40): 1 (3%) n (%)
- SAE: Febrile neutropenia (Total, all Q1W doses, n = 40): 1 (3%) n (%)
- SAE: Hyperglycaemia (Total, all Q1W doses, n = 40): 2 (5%) n (%)
- SAE: Pneumonia (Total, all Q1W doses, n = 40): 2 (5.%) n (%)
